Experimental data from PMC10504348.
Several values for one entry are separate records, joined by “and”; a condition that tells them apart may be missing. Identical values can stand only once.

What was measured:
[1] = molecular target: Human respiratory syncytial virus nucleoprotein N, full-length wild type (strain Long), as N-RNA assemblies (Human respiratory syncytial virus (strain Long)) (UniProt P03418); test: cryo-EM structure; purified N-RNA assemblies in TEN buffer (50 mM Tris-HCl, 10 mM EDTA, 150 mM NaCl, pH 7.4), plunge-frozen on holey carbon grids; Glacios microscope, K2 detector; assemblies classified and reconstructed separately
[2] = molecular target: C-terminally truncated HRSV nucleoprotein N1-370 (strain Long), as N-RNA assemblies (Human respiratory syncytial virus (strain Long)) (UniProt P03418); test: as above

Row | Substance | stoichiometry N [1] | stoichiometry N [2]
1 | Human respiratory syncytial virus nucleoprotein N, full-length wild type (strain Long), as N-RNA assemblies (from UniProt P03418 1-391) (natural protein) | 10 and 11 | 
2 | C-terminally truncated HRSV nucleoprotein N1-370 (strain Long), as N-RNA assemblies (from UniProt P03418 1-370) (domain or fragment) |  | 10
